Results reported in article PMC7476737, “Targeting 14-3-3ε-CDC25A interactions to trigger apoptotic cell death in skin cancer” (Oncotarget, 2020).
[ ]: non-standard residue; d: D form. pT = C[C@@H](OP(=O)(O)O)[C@H](N)C(=O)O; pS = N[C@@H](COP(=O)(O)O)C(=O)O

T1: 14-3-3ε (human (endogenous in SCC12B.2 and nHEK), UniProt P62258 1-255)
T1 sequence (looked up): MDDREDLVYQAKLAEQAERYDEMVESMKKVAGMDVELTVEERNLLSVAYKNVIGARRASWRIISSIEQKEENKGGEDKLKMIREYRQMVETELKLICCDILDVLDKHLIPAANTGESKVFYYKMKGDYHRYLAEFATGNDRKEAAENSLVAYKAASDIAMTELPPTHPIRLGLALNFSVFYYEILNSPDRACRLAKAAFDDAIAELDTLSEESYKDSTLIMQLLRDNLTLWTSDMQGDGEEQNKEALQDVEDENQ

B1: pT peptide (501-515 fragment of human CDC25A with phospho-Thr507) (peptide, UniProt P30304 501-515, looked up)
peptide: Ac-FRTKSR[pT]WAGEKSKR-NH2
SMILES: CC(=O)N[C@@H](Cc1ccccc1)C(=O)N[C@@H](CCCNC(=N)N)C(=O)N[C@H](C(=O)N[C@@H](CCCCN)C(=O)N[C@@H](CO)C(=O)N[C@@H](CCCNC(=N)N)C(=O)N[C@H](C(=O)N[C@@H](Cc1c[nH]c2ccccc12)C(=O)N[C@@H](C)C(=O)NCC(=O)N[C@@H](CCC(=O)O)C(=O)N[C@@H](CCCCN)C(=O)N[C@@H](CO)C(=O)N[C@@H](CCCCN)C(=O)N[C@@H](CCCNC(=N)N)C(N)=O)[C@@H](C)OP(=O)(O)O)[C@@H](C)O
B2: pS peptide (173-186 fragment of human CDC25A with phospho-Ser178) (peptide, UniProt P30304 173-186, looked up)
peptide: Ac-TQRQN[pS]APARMLSS-NH2
SMILES: CSCC[C@H](NC(=O)[C@H](CCCNC(=N)N)NC(=O)[C@H](C)NC(=O)[C@@H]1CCCN1C(=O)[C@H](C)NC(=O)[C@H](COP(=O)(O)O)NC(=O)[C@H](CC(N)=O)NC(=O)[C@H](CCC(N)=O)NC(=O)[C@H](CCCNC(=N)N)NC(=O)[C@H](CCC(N)=O)NC(=O)[C@@H](NC(C)=O)[C@@H](C)O)C(=O)N[C@@H](CC(C)C)C(=O)N[C@@H](CO)C(=O)N[C@@H](CO)C(N)=O

Target: T1, 14-3-3ε
Assay: cell-based or functional assay

Row | Binder | IC50 of SCC12B.2 cell viability (neutral red assay, 0-75 μM peptide, 96 h); the pair blocked is 14-3-3ε with CDC25A [µM]
1 | B1 | 22.6
2 | B2 | 29
